Test results reported in article PMC9352346, “Arl15 upregulates the TGFβ family signaling by promoting the assembly of the Smad-complex” (eLife, 2022).

T1: His-Smad4 (UniProt Q13485 1-552)
T1 construct: Smad4; also called purified His-tagged Smad4; source: E. coli BL21, purified (nickel-nitrilotriacetic acid agarose)
T1 sequence (looked up): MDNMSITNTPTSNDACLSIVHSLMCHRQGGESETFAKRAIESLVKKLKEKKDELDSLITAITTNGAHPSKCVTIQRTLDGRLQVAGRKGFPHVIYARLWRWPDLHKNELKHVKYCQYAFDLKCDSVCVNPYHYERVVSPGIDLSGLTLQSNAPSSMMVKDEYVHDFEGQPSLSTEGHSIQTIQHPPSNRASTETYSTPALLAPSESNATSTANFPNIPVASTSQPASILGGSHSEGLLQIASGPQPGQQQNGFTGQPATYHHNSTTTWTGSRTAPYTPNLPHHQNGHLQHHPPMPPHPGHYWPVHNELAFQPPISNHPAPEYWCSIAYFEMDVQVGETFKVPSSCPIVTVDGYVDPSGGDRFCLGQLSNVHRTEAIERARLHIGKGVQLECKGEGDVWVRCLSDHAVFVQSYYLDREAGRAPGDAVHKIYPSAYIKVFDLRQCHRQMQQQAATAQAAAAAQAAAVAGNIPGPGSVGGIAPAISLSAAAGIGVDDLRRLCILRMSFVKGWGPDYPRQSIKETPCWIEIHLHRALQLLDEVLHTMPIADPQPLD

B1: GST-Arl15-AL (natural protein, human, UniProt Q9NXU5 1-204, looked up)
chain: MSDLRITEAFLYMDYLCFRALCCKGPPPARPEYDLVCIGLTGSGKTSLLSKLCSESPDNVVSTTGFSIKAVPFQNAILNVKELGGLDNIRKYWSRYYQGSQGVIFVLDSASSEDDLEAARNELHSALQHPQLCTLPFLILANHQDKPAARSVQEIKKYFELEPLARGKRWILQPCSLDDMDALKDSFSQLINLLEEKDHEAVRM
notes: Arl15, human, A86L; also called bead-immobilized Arl15-AL; GST-Arl15-A86L; source: E. coli BL21, purified (Glutathione Sepharose 4B)
B2: His-Smad2-SE (natural protein, UniProt Q15796 1-467, looked up)
chain: MSSILPFTPPVVKRLLGWKKSAGGSGGAGGGEQNGQEEKWCEKAVKSLVKKLKKTGRLDELEKAITTQNCNTKCVTIPSTCSEIWGLSTPNTIDQWDTTGLYSFSEQTRSLDGRLQVSHRKGLPHVIYCRLWRWPDLHSHHELKAIENCEYAFNLKKDEVCVNPYHYQRVETPVLPPVLVPRHTEILTELPPLDDYTHSIPENTNFPAGIEPQSNYIPETPPPGYISEDGETSDQQLNQSMDTGSPAELSPTTLSPVNHSLDLQPVTYSEPAFWCSIAYYELNQRVGETFHASQPSLTVDGFTDPSNSERFCLGLLSNVNRNATVEMTRRHIGRGVRLYYIGGEVFAECLSDSAIFVQSPNCNQRYGWHPATVCKIPPGCNLKIFNNQEFAALLAQSVNQGFEAVYQLTRMCTIRMSFVKGWGAEYRRQTVTSTPCWIELHLNGPLQWLDKVLTQMGSPSVRCSEME
notes: Smad2 with phosphomimetic mutations S465E/S467E; also called His-Smad2 with S465E/S467E mutations; source: E. coli BL21, purified (nickel-nitrilotriacetic acid agarose)

Target: T1, His-Smad4
Test: pull-down; bead-immobilized GST-Arl15-AL incubated with purified His-tagged Smads (His-Smad4, His-Smad2-SE, alone or together); immunoblotted against His-tag
Conditions: both partners purified

Binder	binding result
B1	binds
B2	binds
